According to patent US20150344570A1 (published 2015):

T1: FcγRIIa R (FcγRIIa, allotype with Arg at position 131), extracellular domain with C-terminal His tag (human, UniProt P12318 34-217)
T1 construct: extracellular domain; also called FcγRIIa R type; 2aR
T1 sequence (looked up): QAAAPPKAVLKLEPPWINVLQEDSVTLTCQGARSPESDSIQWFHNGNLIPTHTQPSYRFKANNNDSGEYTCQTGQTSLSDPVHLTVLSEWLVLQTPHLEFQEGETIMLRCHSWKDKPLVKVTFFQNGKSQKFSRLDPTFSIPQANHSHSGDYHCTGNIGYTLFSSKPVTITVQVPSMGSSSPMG

B1: GpH7-B3 variant K326_07I/GpL16-k0 (antibody, human IgG1, kappa)
heavy: not shown
light: DIVMTQSPLSLPVTPGEPASISCQASESLVHSNRNTYLHWYLQKPGQSPQLLIYKVSNRFSGVPDRFSGSGSGTDFTLKISRVEAEDVGVYYCSQNTHVPPTFGQGTKVEIERTVAAPSVFIFPPSDEQLKSGTASVVCLLNNFYPREAKVQWKVDNALQSGNSQESVTEQDSKDSTYSLSSTLTLSKADYEKHKVYACEVTHQGLSSPVTKSFNRGEC
notes: also called Ho Ab K326_07I
B2: GpH7-B3 variant K326_08L/GpL16-k0 (antibody, human IgG1, kappa)
heavy: not shown
light: B1 light
notes: also called Ho Ab K326_08L
B3: GpH7-B3 variant K326_09D/GpL16-k0 (antibody, human IgG1, kappa)
heavy: not shown
light: B1 light
notes: also called Ho Ab K326_09D
B4: GpH7-B3 variant K326_10E/GpL16-k0 (antibody, human IgG1, kappa)
heavy: not shown
light: B1 light
notes: also called Ho Ab K326_10E
B5: GpH7-B3 variant K326_14T/GpL16-k0 (antibody, human IgG1, kappa)
heavy: not shown
light: B1 light
notes: also called Ho Ab K326_14T
B6: GpH7-B3 variant K326_15Y/GpL16-k0 (antibody, human IgG1, kappa)
heavy: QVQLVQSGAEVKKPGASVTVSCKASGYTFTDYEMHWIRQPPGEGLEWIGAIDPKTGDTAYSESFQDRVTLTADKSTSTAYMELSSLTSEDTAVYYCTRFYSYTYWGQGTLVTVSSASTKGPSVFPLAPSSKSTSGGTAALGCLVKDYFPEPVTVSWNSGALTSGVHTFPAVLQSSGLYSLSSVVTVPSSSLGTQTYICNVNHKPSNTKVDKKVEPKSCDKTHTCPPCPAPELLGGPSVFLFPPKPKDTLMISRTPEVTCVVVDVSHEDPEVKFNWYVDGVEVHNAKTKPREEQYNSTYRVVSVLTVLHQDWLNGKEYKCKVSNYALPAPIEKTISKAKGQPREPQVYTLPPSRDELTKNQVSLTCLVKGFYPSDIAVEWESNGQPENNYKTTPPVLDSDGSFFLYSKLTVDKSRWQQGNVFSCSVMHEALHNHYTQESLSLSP
light: B1 light
notes: also called Ho Ab K326_15Y
B7: GpH7-B3 variant K326_19Q/GpL16-k0 (antibody, human IgG1, kappa)
heavy: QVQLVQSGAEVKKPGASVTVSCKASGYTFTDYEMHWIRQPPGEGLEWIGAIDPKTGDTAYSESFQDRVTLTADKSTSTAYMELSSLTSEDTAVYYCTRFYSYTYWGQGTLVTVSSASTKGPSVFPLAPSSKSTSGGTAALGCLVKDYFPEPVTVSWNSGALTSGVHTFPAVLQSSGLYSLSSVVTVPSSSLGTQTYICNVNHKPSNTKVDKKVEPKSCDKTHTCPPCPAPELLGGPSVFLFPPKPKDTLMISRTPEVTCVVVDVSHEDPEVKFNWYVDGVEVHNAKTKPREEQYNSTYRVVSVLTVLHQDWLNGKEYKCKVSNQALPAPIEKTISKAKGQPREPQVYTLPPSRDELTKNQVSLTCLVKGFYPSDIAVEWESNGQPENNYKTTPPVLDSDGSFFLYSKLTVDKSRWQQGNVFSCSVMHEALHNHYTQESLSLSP
light: B1 light
notes: also called Ho Ab K326_19Q
B8: GpH7-B3 variant K334_02A/GpL16-k0 (antibody, human IgG1, kappa)
heavy: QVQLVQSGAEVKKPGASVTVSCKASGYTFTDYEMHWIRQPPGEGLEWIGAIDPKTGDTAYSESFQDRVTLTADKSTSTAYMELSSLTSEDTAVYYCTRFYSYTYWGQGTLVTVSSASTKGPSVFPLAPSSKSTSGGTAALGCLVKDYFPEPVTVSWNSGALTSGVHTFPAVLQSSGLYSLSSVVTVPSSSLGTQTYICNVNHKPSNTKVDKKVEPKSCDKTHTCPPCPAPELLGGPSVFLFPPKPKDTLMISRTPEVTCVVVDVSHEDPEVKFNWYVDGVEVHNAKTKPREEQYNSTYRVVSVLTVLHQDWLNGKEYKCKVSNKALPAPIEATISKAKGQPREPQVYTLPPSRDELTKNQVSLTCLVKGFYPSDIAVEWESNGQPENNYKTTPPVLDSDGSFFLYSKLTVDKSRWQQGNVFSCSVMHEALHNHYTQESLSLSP
light: B1 light
notes: also called Ho Ab K334_02A
B9: GpH7-B3 variant K334_03V/GpL16-k0 (antibody, human IgG1, kappa)
heavy: not shown
light: B1 light
notes: also called Ho Ab K334_03V
B10: GpH7-B3 variant K334_04F/GpL16-k0 (antibody, human IgG1, kappa)
heavy: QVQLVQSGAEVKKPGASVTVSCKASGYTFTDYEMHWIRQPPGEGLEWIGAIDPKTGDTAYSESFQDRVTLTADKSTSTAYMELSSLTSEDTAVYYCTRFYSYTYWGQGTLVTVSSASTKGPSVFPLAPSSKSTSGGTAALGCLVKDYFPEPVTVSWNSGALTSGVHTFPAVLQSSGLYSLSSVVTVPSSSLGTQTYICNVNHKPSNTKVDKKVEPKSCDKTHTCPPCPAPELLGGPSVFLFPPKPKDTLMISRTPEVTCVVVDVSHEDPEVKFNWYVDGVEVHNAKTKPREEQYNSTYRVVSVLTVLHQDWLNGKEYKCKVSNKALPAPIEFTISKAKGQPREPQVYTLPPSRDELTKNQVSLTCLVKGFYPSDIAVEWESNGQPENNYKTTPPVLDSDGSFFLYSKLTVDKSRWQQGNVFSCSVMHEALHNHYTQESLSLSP
light: B1 light
notes: also called Ho Ab K334_04F
B11: GpH7-B3 variant K334_05P/GpL16-k0 (antibody, human IgG1, kappa)
heavy: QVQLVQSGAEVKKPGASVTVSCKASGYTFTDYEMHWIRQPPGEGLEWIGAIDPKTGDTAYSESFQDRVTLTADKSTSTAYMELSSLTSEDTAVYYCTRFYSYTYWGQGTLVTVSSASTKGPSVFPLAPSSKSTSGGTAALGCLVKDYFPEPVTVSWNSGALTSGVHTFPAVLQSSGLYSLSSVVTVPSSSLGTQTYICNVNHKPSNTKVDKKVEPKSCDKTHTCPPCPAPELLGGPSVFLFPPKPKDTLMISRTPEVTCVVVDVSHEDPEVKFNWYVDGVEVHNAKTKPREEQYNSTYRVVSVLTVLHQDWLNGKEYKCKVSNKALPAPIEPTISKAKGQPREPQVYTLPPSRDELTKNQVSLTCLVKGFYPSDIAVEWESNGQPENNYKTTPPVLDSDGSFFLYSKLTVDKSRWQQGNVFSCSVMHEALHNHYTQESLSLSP
light: B1 light
notes: also called Ho Ab K334_05P
B12: GpH7-B3 variant K334_07I/GpL16-k0 (antibody, human IgG1, kappa)
heavy: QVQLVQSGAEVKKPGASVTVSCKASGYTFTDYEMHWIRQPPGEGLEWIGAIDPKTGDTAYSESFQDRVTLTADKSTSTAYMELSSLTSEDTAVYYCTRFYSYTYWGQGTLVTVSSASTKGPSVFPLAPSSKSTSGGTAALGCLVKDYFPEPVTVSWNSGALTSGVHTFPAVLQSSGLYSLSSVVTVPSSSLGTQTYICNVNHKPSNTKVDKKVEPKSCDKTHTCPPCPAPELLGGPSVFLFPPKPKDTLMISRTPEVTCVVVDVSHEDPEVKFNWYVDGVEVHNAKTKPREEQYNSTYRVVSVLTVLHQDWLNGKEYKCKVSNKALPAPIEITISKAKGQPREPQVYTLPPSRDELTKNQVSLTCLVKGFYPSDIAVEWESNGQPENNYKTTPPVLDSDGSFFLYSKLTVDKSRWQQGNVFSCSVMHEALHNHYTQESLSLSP
light: B1 light
notes: also called Ho Ab K334_07I
B13: GpH7-B3 variant K334_08L/GpL16-k0 (antibody, human IgG1, kappa)
heavy: not shown
light: B1 light
notes: also called Ho Ab K334_08L
B14: GpH7-B3 variant K334_09D/GpL16-k0 (antibody, human IgG1, kappa)
heavy: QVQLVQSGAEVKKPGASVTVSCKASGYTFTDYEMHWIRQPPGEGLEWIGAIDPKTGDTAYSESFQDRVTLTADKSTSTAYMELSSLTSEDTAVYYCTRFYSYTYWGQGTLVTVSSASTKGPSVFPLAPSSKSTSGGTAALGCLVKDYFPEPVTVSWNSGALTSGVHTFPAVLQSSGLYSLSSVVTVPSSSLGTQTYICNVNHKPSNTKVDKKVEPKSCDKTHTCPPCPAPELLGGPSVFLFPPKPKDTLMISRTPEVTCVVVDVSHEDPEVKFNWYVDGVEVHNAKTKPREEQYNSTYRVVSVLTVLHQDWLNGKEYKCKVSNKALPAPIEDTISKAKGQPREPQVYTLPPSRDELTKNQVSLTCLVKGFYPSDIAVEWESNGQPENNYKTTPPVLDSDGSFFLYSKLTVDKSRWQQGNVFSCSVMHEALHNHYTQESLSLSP
light: B1 light
notes: also called Ho Ab K334_09D
B15: GpH7-B3 variant K334_10E/GpL16-k0 (antibody, human IgG1, kappa)
heavy: not shown
light: B1 light
notes: also called Ho Ab K334_10E
B16: GpH7-B3 variant K334_13S/GpL16-k0 (antibody, human IgG1, kappa)
heavy: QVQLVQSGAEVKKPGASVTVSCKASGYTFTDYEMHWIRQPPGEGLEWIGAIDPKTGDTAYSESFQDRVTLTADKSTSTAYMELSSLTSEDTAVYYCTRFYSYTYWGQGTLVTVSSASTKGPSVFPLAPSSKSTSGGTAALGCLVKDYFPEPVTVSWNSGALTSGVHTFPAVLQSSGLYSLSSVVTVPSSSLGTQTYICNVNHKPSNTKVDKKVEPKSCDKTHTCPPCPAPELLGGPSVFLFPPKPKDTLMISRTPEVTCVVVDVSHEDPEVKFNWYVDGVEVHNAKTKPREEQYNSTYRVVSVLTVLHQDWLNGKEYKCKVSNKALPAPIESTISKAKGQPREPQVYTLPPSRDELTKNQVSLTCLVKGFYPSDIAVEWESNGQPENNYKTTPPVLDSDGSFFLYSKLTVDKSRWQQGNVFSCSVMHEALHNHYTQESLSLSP
light: B1 light
notes: also called Ho Ab K334_13S
B17: GpH7-B3 variant K334_14T/GpL16-k0 (antibody, human IgG1, kappa)
heavy: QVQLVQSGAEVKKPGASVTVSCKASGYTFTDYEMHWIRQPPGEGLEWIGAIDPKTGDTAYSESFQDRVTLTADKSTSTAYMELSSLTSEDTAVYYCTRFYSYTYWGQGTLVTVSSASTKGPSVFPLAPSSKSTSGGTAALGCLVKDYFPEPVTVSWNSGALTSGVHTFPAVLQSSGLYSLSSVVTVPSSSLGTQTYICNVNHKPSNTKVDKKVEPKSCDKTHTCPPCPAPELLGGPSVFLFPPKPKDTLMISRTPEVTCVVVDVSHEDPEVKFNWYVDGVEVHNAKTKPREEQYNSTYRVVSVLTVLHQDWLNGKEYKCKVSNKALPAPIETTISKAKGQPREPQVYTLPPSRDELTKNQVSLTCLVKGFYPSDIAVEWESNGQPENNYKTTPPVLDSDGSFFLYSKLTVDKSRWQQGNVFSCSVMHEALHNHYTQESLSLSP
light: B1 light
notes: also called Ho Ab K334_14T
B18: GpH7-B3 variant K334_15Y/GpL16-k0 (antibody, human IgG1, kappa)
heavy: not shown
light: B1 light
notes: also called Ho Ab K334_15Y
B19: GpH7-B3 variant K334_16H/GpL16-k0 (antibody, human IgG1, kappa)
heavy: not shown
light: B1 light
notes: also called Ho Ab K334_16H
B20: GpH7-B3 variant K334_18N/GpL16-k0 (antibody, human IgG1, kappa)
heavy: not shown
light: B1 light
notes: also called Ho Ab K334_18N
B21: GpH7-B3 variant K334_19Q/GpL16-k0 (antibody, human IgG1, kappa)
heavy: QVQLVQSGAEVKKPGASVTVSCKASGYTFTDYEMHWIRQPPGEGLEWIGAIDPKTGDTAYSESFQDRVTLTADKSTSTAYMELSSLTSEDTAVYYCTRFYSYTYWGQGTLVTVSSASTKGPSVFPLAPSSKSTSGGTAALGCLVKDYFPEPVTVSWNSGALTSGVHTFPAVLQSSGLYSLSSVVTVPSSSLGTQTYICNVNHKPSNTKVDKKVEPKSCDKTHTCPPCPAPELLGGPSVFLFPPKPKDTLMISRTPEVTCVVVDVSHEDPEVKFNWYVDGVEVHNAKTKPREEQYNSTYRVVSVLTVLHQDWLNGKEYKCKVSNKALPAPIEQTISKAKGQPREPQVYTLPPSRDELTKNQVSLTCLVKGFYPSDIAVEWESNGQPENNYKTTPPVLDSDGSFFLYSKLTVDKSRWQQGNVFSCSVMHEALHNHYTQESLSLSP
light: B1 light
notes: also called Ho Ab K334_19Q
B22: GpH7-B3 variant Q295_02A/GpL16-k0 (antibody, human IgG1, kappa)
heavy: not shown
light: B1 light
notes: also called Ho Ab Q295_02A
B23: GpH7-B3 variant Q295_10E/GpL16-k0 (antibody, human IgG1, kappa)
heavy: not shown
light: B1 light
notes: also called Ho Ab Q295_10E
B24: GpH7-A5/GpH7-B3 variant Y296_18N/GpL16-k0 (antibody, human IgG1, kappa)
heavy 1: not shown
heavy 2: not shown
light: B1 light
notes: also called He Ab
B25: GpH7-A5/GpH7-B3 variant Y296_19Q/GpL16-k0 (antibody, human IgG1, kappa)
heavy 1: not shown
heavy 2: not shown
light: B1 light
notes: also called He Ab
B26: GpH7-A5/GpH7-B3 variant Y296_20W/GpL16-k0 (antibody, human IgG1, kappa)
heavy 1: not shown
heavy 2: not shown
light: B1 light
notes: also called He Ab
B27: GpH7-A5/GpH7-B3 variant Y300_18N/GpL16-k0 (antibody, human IgG1, kappa)
heavy 1: not shown
heavy 2: not shown
light: B1 light
notes: also called He Ab

target: T2, FcγRIIIa extracellular domain with C-terminal His tag (human, UniProt P08637 17-208); assay: SPR Biacore, captured antibody, FcγR analyte, relative binding
T2 construct: extracellular domain; also called FcgRIIIa; 3a; not shown: His tag attached to the C terminus
T2 sequence (P08637 17-208): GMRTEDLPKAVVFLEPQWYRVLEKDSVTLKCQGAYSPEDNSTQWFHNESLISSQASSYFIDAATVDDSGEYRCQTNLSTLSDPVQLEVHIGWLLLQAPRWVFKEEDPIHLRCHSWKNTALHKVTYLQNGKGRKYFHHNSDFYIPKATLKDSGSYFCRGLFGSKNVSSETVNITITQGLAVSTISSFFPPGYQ
Experimental: Analysis of interaction between objective antibody and the FcγR was carried out using Biacore T100 (GE Healthcare). HBS-EP+ (GE Healthcare) was used as the running buffer, and the measurement temperature was set to 25° C. Chips produced by immobilizing the antigen peptide by the amine coupling method to a Series S Sencor Chip CM5 (GE Healthcare), or alternatively, chips produced by allowing preliminarily biotinylated antigen peptides to interact with and immobilize onto a Series S Sensor Chip SA (certified) (GE Healthcare) were used. Antibodies of interest were captured onto an antigen peptide-immobilized chip, and allowed to interact to each FcγR diluted with running buffer. To regenerate and repeatedly use the chip, the antibodies captured on the chip were washed off by reacting 10 mM glycine-HCl, pH 1.5.

Row | Binder | Ho/Con_3a
1 | B1 | 134 % of HoCon Ab GpH7-B3/GpL16-k0 (=100)
2 | B2 | 114 % of HoCon Ab GpH7-B3/GpL16-k0 (=100)
3 | B3 | 163 % of HoCon Ab GpH7-B3/GpL16-k0 (=100)
4 | B4 | 157 % of HoCon Ab GpH7-B3/GpL16-k0 (=100)
5 | B5 | 147 % of HoCon Ab GpH7-B3/GpL16-k0 (=100)
6 | B6 | 115 % of HoCon Ab GpH7-B3/GpL16-k0 (=100)
7 | B7 | 118 % of HoCon Ab GpH7-B3/GpL16-k0 (=100)
8 | B8 | 154 % of HoCon Ab GpH7-B3/GpL16-k0 (=100)
9 | B9 | 170 % of HoCon Ab GpH7-B3/GpL16-k0 (=100)
10 | B10 | 168 % of HoCon Ab GpH7-B3/GpL16-k0 (=100)
11 | B11 | 165 % of HoCon Ab GpH7-B3/GpL16-k0 (=100)
12 | B12 | 180 % of HoCon Ab GpH7-B3/GpL16-k0 (=100)
13 | B13 | 178 % of HoCon Ab GpH7-B3/GpL16-k0 (=100)
14 | B14 | 150 % of HoCon Ab GpH7-B3/GpL16-k0 (=100)
15 | B15 | 206 % of HoCon Ab GpH7-B3/GpL16-k0 (=100)
16 | B16 | 153 % of HoCon Ab GpH7-B3/GpL16-k0 (=100)
17 | B17 | 163 % of HoCon Ab GpH7-B3/GpL16-k0 (=100)
18 | B18 | 181 % of HoCon Ab GpH7-B3/GpL16-k0 (=100)
19 | B19 | 153 % of HoCon Ab GpH7-B3/GpL16-k0 (=100)
20 | B20 | 156 % of HoCon Ab GpH7-B3/GpL16-k0 (=100)
21 | B21 | 150 % of HoCon Ab GpH7-B3/GpL16-k0 (=100)
22 | B22 | 108 % of HoCon Ab GpH7-B3/GpL16-k0 (=100)
23 | B23 | 111 % of HoCon Ab GpH7-B3/GpL16-k0 (=100)

target: T1, FcγRIIa R (FcγRIIa, allotype with Arg …); assay: SPR (Biacore), antibody captured on antigen peptide chip, FcγR as analyte; relative binding

Row | Binder | He/Con_2aR
24 | B24 | 104 % of GpH7-A5/GpH7-B3/GpL16-k0 (=100)
25 | B25 | 102 % of GpH7-A5/GpH7-B3/GpL16-k0 (=100)
26 | B26 | 110 % of GpH7-A5/GpH7-B3/GpL16-k0 (=100)
27 | B27 | 100 % of GpH7-A5/GpH7-B3/GpL16-k0 (=100)
